# Experimental data: the supplement of paper PMC12042874
# ± gives the uncertainty stated by the source.
# Assay: amyloid nucleation score (Sup35N fusion, yeast selection) (log enrichment); library NNK3; higher = more nucleation; inactive = no reads after selection
# Outline: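 In psi-negative yeast, Sup35N fusions carrying peptides of 20 random codons were induced with 100 μM copper sulfate for 24 hours. The cells then grew 7 days at 30°C on medium lacking adenine and uracil, and plasmid inserts from input and output were Illumina-sequenced, excluding sequences with under 100 input reads. Nucleation score is the DiMSum log enrichment of output over input reads, centred on the mode score of non-aggregating sequences.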
row,Substance,amyloid nucleation score
1,WVVRKVHSLSHCLGCHPESW,0.231 ± 0.57
2,HALFGYISRVDNLYSSMVSH,inactive
3,YSIMFRVLVGT,inactive
4,VVGQKTIVGTLIHFSFKVLA,1.26 ± 0.14
5,NLTFYMYIELVDLRGNAE,2.29 ± 0.056
6,RHNISFT,inactive
7,KGVDQGISECFLAVWFGRMN,inactive
8,MCLSILE,inactive
9,SVKTGYVDRPNLRTTFYGCL,inactive
10,HNRRKR,-0.16 ± 0.4
11,AYLSSTSANF,inactive
12,CFLVTVSSGTASMQVLGRSG,1.23 ± 0.14
13,HVVIARTNRGDYNCFSSDGG,inactive
14,SYDNWWCVILMRNQGRCAWG,inactive
15,KNREVANYNDMYSDPILG,inactive
16,VCKVTFMCAFRHDYSKRYYG,0.35 ± 0.48
17,WCAVMPFRSVTSNVIFDLSV,inactive
18,TGYLAMWLY,inactive
19,TAWGMLGGPE,inactive
20,PLRPKLFFERNGSGYRQNRA,inactive
21,SFMITFLIMRHVASFA,inactive
22,GICWY,inactive
23,AAHCYNGVLKGVI,inactive
24,FLVNDYFV,inactive

row,Substance,amyloid nucleation score
1,LKSMLLSMRSIIEYCQQMVG,inactive
2,RSTAPGTGSDIPFEDSLRQM,inactive
3,QCSWLCIWMGVYLTLILSCA,0.805 ± 0.17
4,MKAYILMVDRLVVELVPHVA,-0.107 ± 0.35
5,ASYLNYSFVKIETAVSSNPC,0.609 ± 0.11
6,QCHSLYSWNDGWC,inactive
7,LNILIFFCFYGVWKIWKIIS,-0.665 ± 1.3
8,ISSFGARNTPWRTLSPAPEG,0.184 ± 0.32
9,ICTDGVHGCMVGS,inactive
10,LVLRGKRSDV,inactive
11,CSFIAGAPTSFWVVGLCWKY,-0.031 ± 0.72
12,AVICYS,inactive
13,FPGCSRENLTVGLSVTRTEG,inactive
14,PTHLCFLQFTVAIFVSGIRA,0.851 ± 0.12
15,RWSTLIVTCSAGPSDFVCDG,inactive
16,LCSVVTSRAMSGSF,inactive
17,CGGLHQHNLMRRCRWMKPGE,inactive
18,IMIYSQPKGEASCFGCFRLG,0.702 ± 0.17
19,AKTSYQRN,inactive
20,WACCGICSCL,2.02 ± 0.094
21,LSWRTPISAMFDSWACGGGR,inactive
22,PYLLMWSA,inactive
23,CFGCVWLTITTNFPTVLFRG,inactive
24,VRRKDSNSCVSSHTASQSGW,inactive

row,Substance,amyloid nucleation score
1,LKIWLRSYPYPLTGQKQRPK,inactive
2,FYMSNDCP,inactive
3,VSDILADCPIIRPGGYCCVS,inactive
4,RGFLVRWAPFCLGFGSTLND,inactive
5,FHKKMCTWIDELVIAVQFRD,inactive
6,DQMIEDRNWNGVNDYSYNAC,inactive
7,FDRNSPTVLFRLRWEYF,inactive
8,VLLFLTFMYSLSFWSMLLRG,inactive
9,SFTMMRSFSA,inactive
10,VVVLYFVSHWTNRMSYSTRL,inactive
11,ELLSCLKIWDIL,inactive
12,ALEFRSTENTSSSG,-0.223 ± 0.73
13,LSPPLVSWGGPTVRMGKCSG,inactive
14,AVTKNVTERFHMLMPKDWVG,inactive
15,FLSSCKLMGFMS,inactive
16,NLFYDFFDYMVSRARGGRVC,inactive
17,PRISQEDVFARTARVDLGLQ,inactive
18,SHSLS,inactive
19,MIRVSHNRNASDQLRFASSL,inactive
20,HTVLILVCAFKNAG,inactive
21,DVAYFNAFY,inactive
22,NYGYRRPVMILPVHR,inactive
23,CLVNNLCVLR,0.047 ± 0.55
24,YCVFGRNCDNKAVVLIGGNP,inactive

row,Substance,amyloid nucleation score
1,FYKMVGVRYGC,inactive
2,GDTRF,inactive
3,FFLYSNIFQLS,2.32 ± 0.092
4,LICVYVWVHCLMNPYHAINR,0.199 ± 0.16
5,YNMFNTLVDRVQLRGLCYGV,inactive
6,RSNYRGYFK,-0.498 ± 1.4
7,VEAEHYSRRNEKVFRSNMKW,inactive
8,LNGRYSLLWR,inactive
9,RINESRLYLSEVKYGLTCVR,inactive
10,HGMTIMLGVGWYLWDGSTEG,0.657 ± 0.16
11,EMNSTFW,inactive
12,RVRFLCIMFWDH,-0.038 ± 0.66
13,CKIRGCKVLLDFVMASVDLW,inactive
14,YSNSELSGECRLLHKITSD,inactive
15,CFPIPVWRGDLNGAPRYAQM,inactive
16,FKLHIWSS,inactive
17,RMEKIRTKVNSVTDSSWKSR,inactive
18,HYYVTVTHGS,inactive
19,IHLTCLWVYQDLLV,inactive
20,HMSSLITVS,inactive
21,RVSYKICKERKF,inactive
22,LLIGNY,inactive
23,YPWVYLAGYFHFFDELVGIF,inactive
24,GGLRNNPKRVIRDEDVQVHM,inactive

row,Substance,amyloid nucleation score
1,WARIYKMLIF,inactive
2,SIGNAIS,inactive
3,AFCNTIETDMNSAPVFLRAA,inactive
4,ILCFGLLN,inactive
5,CVFNMLEQ,inactive
6,IWFKWNRCNVRGMTWTDFYA,1.17 ± 0.082
7,LRMGVNILLAMGCFSAYPGE,0.171 ± 0.39
8,NLDYLVNLLCDYLES,-0.703 ± 1.9
9,PNCVISSLTFRWVIFSECEP,inactive
10,RIITLNRHIRRVFRMGCRSM,inactive
11,DGDYSWGFVIRCHGPRSWSR,inactive
12,RRRLG,inactive
13,NIIEPFKWTTTSLYNSDFYF,inactive
14,HRYYYFF,1.83 ± 0.093
15,LFHDLGFAD,inactive
16,WGTRLWIVVQIGQEYVLLVR,-0.234 ± 1.1
17,GFFSLYVVE,inactive
18,TDVIYVDGPLA,inactive
19,CYQSLECAIMGYGLYVYSWC,inactive
20,AGRDIIMYNRAWFNISAA,inactive
21,CTSTAVLGSVLCK,inactive
22,LGYTQSVTVMRLMSQYKKAG,-0.334 ± 0.55
23,CMFKGHAELLRWVL,inactive
24,IRDLSLNQSGYFTFVTCWRC,2.73 ± 0.067

row,Substance,amyloid nucleation score
1,ISCIGPFCSTIPLIKLNLIE,1.3 ± 0.1
2,TNDFVNV,inactive
3,LLGTEIWGCRRISHSGVMRW,-0.009 ± 0.43
4,VHLNCCTVLKEVRLFT,0.78 ± 0.26
5,VFTPLCAYVVGYLYEVCGDD,inactive
6,PSGTFFNSVVYGRWYKLKRK,-0.34 ± 0.93
7,CGNTSIV,inactive
8,KRANSE,1.11 ± 0.1
9,CAFPVDGRGTIVVFRHVLEG,inactive
10,QHSGRWCGAPALGNLVAMSS,inactive
11,PVDKCRCGGWNLSHLHKLSS,-0.615 ± 1.7
12,NVFNFRVDSSDHPPVSAWWD,inactive
13,FEECGVGPYVTKREATWFNG,inactive
14,RASTISLGKLVQLYLYSRRL,0.468 ± 0.3
15,FRVNKRHQYEEHVLLENLVF,inactive
16,VSGLFDVTLRGWYG,inactive
17,YNDFCN,0.194 ± 0.27
18,NVYNMYS,0.945 ± 0.22
19,IKFHW,inactive
20,YKRRKTVNWHQDCTAIFGGN,inactive
21,VNDVLASLTLCMWLVEWGMK,inactive
22,VWIWWEDSGITCLGYMVLDF,inactive
23,MHWCN,0.228 ± 0.82
24,GISSKRMFLSLSAFERSVYI,inactive

row,Substance,amyloid nucleation score
1,LVVVECSSLMRADLCSTQVM,inactive
2,AQSEAGDF,inactive
3,TYGSVNCVSLMCSVVVLFAM,inactive
4,TNGLVLHRSWLEFFLYYTQR,inactive
5,VGLLVMSVGIERTLWE,inactive
6,QYEWLNYSNLVVYSIKYPEN,inactive
7,YSDTFADNYLNCMHQVKCVN,inactive
8,KDLWCSDSRS,inactive
9,SKLWSYWDLSWLTLKVGWLR,inactive
10,ADMCPVDRRVLDLVSKRAMS,inactive
11,SLYRGYLFGCGQFDNIVYEL,inactive
12,LSMFTFCRYPGCQRLDRKPY,1.23 ± 0.1
13,ISDTSCHIDTLRFLGRVRFL,inactive
14,STWDLNMCLFRYMFKI,inactive
15,GFVIYLNVALLVRSNINRVC,inactive
16,NWFWLF,inactive
17,RSMIWRKCF,inactive
18,LYIIKSR,-0.51 ± 1.7
19,IFTLCITGGV,inactive
20,ILSSKSTNENVSYFLLKM,0.794 ± 0.099
